The record followed here is patent US20130166268.

The data set has as its system full-length rat proMMP9(1-708) (SEQ ID NO:11).

Chain of human catalytic MMP3, MMP3(100-265) (SEQ ID NO:8) (chain, as listed by the source): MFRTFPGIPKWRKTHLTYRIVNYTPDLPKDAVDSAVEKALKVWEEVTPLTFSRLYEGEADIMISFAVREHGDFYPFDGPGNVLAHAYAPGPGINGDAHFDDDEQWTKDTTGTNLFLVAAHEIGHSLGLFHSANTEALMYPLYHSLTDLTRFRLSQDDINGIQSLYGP
Chain of full-length rat proMMP9(1-708) (SEQ ID NO:11) (chain, as listed by the source): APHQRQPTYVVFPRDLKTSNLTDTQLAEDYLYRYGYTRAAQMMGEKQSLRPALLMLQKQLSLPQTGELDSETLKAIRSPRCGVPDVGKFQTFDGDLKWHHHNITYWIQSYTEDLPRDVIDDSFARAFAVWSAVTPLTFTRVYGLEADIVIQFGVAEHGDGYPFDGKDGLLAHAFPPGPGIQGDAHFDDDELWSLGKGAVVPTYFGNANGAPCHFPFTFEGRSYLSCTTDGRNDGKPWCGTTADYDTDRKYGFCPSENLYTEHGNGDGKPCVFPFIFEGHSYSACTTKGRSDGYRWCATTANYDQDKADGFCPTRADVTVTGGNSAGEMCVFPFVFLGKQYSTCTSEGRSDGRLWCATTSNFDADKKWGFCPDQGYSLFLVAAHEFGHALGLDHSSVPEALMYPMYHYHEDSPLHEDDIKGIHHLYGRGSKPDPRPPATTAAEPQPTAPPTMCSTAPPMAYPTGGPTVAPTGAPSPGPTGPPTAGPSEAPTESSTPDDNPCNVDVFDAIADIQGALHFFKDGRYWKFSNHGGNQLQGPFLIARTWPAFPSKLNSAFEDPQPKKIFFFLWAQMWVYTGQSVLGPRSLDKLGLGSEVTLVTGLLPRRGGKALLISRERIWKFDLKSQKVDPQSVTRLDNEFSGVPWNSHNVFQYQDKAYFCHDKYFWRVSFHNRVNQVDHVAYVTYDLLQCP

On to “human catalytic MMP3, MMP3(100-265) (SEQ ID NO:8)”, for which the “conversion of proMMP9 to catalytic MMP9 (Western blot standard)” value is on record as “full-length rat proMMP9(1-708) (SEQ ID NO:11) converted to catalytic rat MMP9 by catalytic MMP3”.
